Experimental findings from patent US20050266008A1 (Bristol-Myers Squibb, published 2005) are described below.

In assay [1] the target is T1, IRTA4 expressed on transfected CHO cells (full-length transmembrane form with N-terminal epitope tag) (human, UniProt Q96LA5 20-508).
T1 construct: also called CHO line expressing IRTA4
T1 sequence: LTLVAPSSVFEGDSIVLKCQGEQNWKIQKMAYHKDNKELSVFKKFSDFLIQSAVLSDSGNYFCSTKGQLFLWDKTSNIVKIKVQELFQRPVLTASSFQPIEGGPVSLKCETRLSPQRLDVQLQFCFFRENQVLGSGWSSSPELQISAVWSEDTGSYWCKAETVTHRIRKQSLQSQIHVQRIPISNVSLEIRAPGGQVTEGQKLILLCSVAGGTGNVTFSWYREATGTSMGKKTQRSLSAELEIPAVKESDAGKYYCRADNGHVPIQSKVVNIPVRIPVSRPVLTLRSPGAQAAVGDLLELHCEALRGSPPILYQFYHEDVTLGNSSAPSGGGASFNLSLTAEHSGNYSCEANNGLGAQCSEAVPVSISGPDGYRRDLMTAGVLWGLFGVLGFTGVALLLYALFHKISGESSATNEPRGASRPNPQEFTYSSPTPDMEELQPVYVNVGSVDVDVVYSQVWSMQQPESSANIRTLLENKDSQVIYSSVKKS
Briefly: flow cytometry on IRTA4-CHO cells, FITC-labeled anti-human IgG. The source says:
(§1) Chinese hamster ovary (CHO) cell lines that express one of each of the five IRTA proteins at the cell surface were developed and used to determine the specificity of the IRTA5 HuMAbs by flow cytometry. CHO cells were transfected with expression plasmids containing full length cDNA encoding transmembrane forms of IRTA1, IRTA2, IRTA3, IRTA4, or IRTA5. In addition, the transfected proteins contained an epitope tag at the N-terminus for detection by an antibody specific for the epitope. Binding of the seven anti-IRTA5 HuMAbs was assessed by incubating the transfected cells with each of the IRTA5 Abs at a concentration of 10 μg/ml. The cells were washed and binding was detected with a FITC-labeled anti-human IgG Ab. A murine anti-epitope tag Ab, followed by labeled anti-murine IgG, was used as the positive control. Non-specific human and murine Abs were used as negative controls. The results are depicted in FIG. 9. The IRTA5 HuMAbs bound to the CHO line transfected with IRTA5 but not to CHO lines expressing IRTA1, 2, or 4 as measured by the mean fluorescent intensity (MFI) of staining.

In assay [2] the target is T2, purified recombinant human IRTA5 fusion protein (human).
T2 construct: Amine-coupled to a CM5 chip in the Biacore kinetics; also called recombinant IRTA5 fusion protein
As to the kind of experiment: Biacore SPR; IRTA5 fusion protein amine-coupled to CM5 chip, antibody flowed at 267 nM, 1:1 Langmuir fit. The procedure: Anti-IRTA5 antibodies were characterized for affinities and binding kinetics by Biacore analysis (Biacore AB, Uppsala, Sweden). Purified recombinant human IRTA5 fusion protein was covalently linked to a CM5 chip (carboxy methyl dextran coated chip) via primary amines, using standard amine coupling chemistry and kit provided by Biacore. Binding was measured by flowing the antibodies in HBS EP buffer (provided by BIAcore AB) at a concentration of 267 nM at a flow rate of 50 μl/min. The antigen-ssociation antibodies association kinetics was followed for 3 minutes and the dissociation kinetics was followed for 7 minutes. The association and dissociation curves were fit to a 1:1 Langmuir binding model using BlAevaluation software (Biacore AB). To minimize the effects of avidity in the estimation of the binding constants, only the initial segment of data coressponding to association and dissociation phases were used for fitting.

In assay [3] the target is T3, IRTA2 expressed on transfected CHO cells (full-length transmembrane form with N-terminal epitope tag) (human, UniProt Q96RD9 16-977).
T3 construct: also called CHO line expressing IRTA2
T3 chain: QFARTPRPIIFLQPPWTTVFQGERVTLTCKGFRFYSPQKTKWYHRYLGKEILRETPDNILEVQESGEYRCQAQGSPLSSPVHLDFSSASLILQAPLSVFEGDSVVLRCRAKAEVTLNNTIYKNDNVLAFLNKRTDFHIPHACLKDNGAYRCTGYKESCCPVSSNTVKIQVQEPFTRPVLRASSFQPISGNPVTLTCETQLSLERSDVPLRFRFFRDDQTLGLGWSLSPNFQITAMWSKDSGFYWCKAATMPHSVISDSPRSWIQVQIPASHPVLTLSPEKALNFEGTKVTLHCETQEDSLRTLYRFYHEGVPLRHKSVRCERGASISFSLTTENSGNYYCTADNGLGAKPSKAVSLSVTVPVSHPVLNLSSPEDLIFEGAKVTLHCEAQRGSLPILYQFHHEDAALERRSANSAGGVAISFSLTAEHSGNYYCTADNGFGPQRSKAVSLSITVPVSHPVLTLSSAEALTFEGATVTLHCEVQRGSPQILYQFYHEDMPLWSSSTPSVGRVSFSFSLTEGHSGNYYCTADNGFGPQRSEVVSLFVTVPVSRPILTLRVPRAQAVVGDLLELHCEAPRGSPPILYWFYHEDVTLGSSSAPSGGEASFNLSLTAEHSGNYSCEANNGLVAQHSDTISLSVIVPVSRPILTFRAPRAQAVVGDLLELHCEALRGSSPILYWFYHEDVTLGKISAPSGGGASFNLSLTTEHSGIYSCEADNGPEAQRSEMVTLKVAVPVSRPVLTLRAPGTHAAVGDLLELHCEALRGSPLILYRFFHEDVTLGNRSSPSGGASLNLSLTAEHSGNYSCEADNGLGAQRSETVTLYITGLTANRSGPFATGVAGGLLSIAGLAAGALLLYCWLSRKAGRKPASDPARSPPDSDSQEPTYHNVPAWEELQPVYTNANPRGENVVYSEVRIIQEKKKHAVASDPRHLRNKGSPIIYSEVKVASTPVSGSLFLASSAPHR
As to the kind of experiment: flow cytometry on IRTA2-CHO cells, FITC-labeled anti-human IgG.
Source text: as §1

B1: human monoclonal antibody 7G8 (antibody, V domains shown)
VH: DVHLVQSGGGLVHPGGSLRLSCAGSGFTFSTYTMHWIRQAPGKDLEWVSAIGTGGGTDYADSVKGRFTISRDNAKNSLYLQMNSLRAEDMAVYYCAREVYWYFDLWGRGTLVTVSS
VL: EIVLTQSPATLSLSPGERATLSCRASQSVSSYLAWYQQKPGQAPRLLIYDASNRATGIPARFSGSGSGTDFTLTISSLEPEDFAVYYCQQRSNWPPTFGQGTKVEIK
notes: Fully human IgG with kappa light chain from an HCo7 HuMab Mouse hybridoma; also called IRTA5 HuMAb 7G8; biotinylated 7G8
For the molecule B1, the binding result in assay [1] is “no binding (tested: 10 µg/ml)”. For the same molecule, in assay [2], the Kd worked out at 16.8 nM, the dissociation rate constant (koff) came to 0.00121 s⁻¹ and the kon was 72000 M⁻¹ s⁻¹. For the same molecule, the binding result in assay [3] is “no binding (tested: 10 µg/ml)”.

B2: human monoclonal antibody 2G5 (antibody, V domains shown)
VH: QVQLVESGGGVVQPGRSLRLSCAASGFTFSDYGMHWVRQAPGKGLEWVAVIWYDGNNKYYADSVKGRFTISRDNSKNTLYLQMNSLRAEDTAVYYCARDWGRAFDIWGQGTMVTVSS
VL: EIVLTQSPATLSLSPGERATLSCRASQSVSSYLAWYQQKPGQAPRLLIYDASNRATGIPARFSGSGSGTDFTLTISSLEPEDFALYYCQQLNNWPPYTFGQGTKLEIK
notes: Fully human IgG with kappa light chain from an HCo7 HuMab Mouse hybridoma; also called IRTA5 HuMAb 2G5; biotinylated 2G5
For B2, the binding result in assay [1] is on record as “no binding (tested: 10 µg/ml)”. In assay [2], the equilibrium dissociation constant (Kd) amounted to 0.028 nM, the off-rate constant (koff) amounted to 4.3e-06 s⁻¹ and the kon was 152000 M⁻¹ s⁻¹. For the same molecule, in assay [3], the binding result is given as “no binding (tested: 10 µg/ml)”.

B3: human monoclonal antibody 5A2 (antibody, V domains shown)
VH: QVQVVESGGGVVQPGRSLRLSCAASGFTFSNYGMHWVRQAPGKGLEWVAGIWYDGSNKYYADSVKGRFTISRDNSKNTLYLQMNSLRAEDTAVYYCARESPNFDYWGQGTLVTVSS
VL: EIVLTQSPATLSLSPGERATLSCRASQSVSSYLAWYQQKPGQAPRLLIYDASNRATGIPARFSGSGSGTDFTLTISSLEPEDFAVYYCQQRNNWPPWTFGQGTKVEIK
notes: Fully human IgG with kappa light chain from an HCo7 HuMab Mouse hybridoma
As to B3, in assay [1], the binding result was “no binding (tested: 10 µg/ml)”. For the same molecule, in assay [2], the Kd turned out to be 0.035 nM, the koff came to 8.7e-06 s⁻¹ and the kon stood at 252000 M⁻¹ s⁻¹. In assay [3], the binding result was “no binding (tested: 10 µg/ml)”.
